Experimental data reported in publication PMC6631321 (Science signaling, 2019).
Values joined by “and” are separate entries in the source; they are usually repeats but may differ in a detail not shown here. Equal entries are not always repeated.

Tests used:
[1] = target: the remaining proteins (α-actinin, afadin, band 4.1B, Scrib, and ZO-1); experiment: co-IP
RFP-Angiomotin, Q4VCS5 [2] = experiment: pull-down; conditions: remark: other sources report otherwise
RFP-Lats1 [3] = target: T1, RFP-Lats1 (UniProt O95835 1-1130); experiment: co-IP
T1 sequence (looked up): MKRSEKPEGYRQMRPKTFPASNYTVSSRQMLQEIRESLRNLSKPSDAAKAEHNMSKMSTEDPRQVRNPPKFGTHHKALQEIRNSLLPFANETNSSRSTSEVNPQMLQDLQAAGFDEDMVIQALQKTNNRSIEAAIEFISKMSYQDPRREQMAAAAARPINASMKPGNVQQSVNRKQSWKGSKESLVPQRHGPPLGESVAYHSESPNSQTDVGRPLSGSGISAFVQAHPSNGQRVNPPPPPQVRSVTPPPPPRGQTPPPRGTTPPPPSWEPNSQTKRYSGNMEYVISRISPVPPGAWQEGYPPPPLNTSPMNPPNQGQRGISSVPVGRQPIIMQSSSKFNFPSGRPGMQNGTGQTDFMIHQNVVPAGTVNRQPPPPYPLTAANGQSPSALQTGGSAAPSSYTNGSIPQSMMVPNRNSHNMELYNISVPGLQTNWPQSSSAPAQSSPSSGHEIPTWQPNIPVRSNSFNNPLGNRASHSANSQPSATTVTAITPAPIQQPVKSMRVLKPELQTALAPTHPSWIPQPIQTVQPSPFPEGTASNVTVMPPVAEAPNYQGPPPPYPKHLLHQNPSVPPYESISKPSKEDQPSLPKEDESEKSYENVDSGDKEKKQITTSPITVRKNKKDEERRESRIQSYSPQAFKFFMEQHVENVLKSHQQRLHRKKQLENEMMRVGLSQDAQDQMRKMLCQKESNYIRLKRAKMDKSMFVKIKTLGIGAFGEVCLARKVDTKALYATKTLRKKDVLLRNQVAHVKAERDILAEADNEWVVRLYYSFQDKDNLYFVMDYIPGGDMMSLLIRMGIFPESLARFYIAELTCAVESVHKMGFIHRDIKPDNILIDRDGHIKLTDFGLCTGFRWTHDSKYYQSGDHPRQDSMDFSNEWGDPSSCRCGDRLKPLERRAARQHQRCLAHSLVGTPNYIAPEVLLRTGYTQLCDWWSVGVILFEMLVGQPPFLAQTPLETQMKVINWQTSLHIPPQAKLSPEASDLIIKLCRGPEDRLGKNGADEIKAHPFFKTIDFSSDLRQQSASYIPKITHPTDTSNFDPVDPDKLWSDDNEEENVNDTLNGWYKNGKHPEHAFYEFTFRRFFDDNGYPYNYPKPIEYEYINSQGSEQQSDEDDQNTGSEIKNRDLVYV

RFP-Angiomotin, Q4VCS5 [4] = experiment: co-IP; conditions: remark: other sources report otherwise
RFP-Lats1 [5] = target: T1, RFP-Lats1; experiment: pull-down
RFP-ASPP2 [6] = target: T2, RFP-ASPP2 (UniProt Q13625 1-1128); experiment: pull-down
T2 sequence (looked up): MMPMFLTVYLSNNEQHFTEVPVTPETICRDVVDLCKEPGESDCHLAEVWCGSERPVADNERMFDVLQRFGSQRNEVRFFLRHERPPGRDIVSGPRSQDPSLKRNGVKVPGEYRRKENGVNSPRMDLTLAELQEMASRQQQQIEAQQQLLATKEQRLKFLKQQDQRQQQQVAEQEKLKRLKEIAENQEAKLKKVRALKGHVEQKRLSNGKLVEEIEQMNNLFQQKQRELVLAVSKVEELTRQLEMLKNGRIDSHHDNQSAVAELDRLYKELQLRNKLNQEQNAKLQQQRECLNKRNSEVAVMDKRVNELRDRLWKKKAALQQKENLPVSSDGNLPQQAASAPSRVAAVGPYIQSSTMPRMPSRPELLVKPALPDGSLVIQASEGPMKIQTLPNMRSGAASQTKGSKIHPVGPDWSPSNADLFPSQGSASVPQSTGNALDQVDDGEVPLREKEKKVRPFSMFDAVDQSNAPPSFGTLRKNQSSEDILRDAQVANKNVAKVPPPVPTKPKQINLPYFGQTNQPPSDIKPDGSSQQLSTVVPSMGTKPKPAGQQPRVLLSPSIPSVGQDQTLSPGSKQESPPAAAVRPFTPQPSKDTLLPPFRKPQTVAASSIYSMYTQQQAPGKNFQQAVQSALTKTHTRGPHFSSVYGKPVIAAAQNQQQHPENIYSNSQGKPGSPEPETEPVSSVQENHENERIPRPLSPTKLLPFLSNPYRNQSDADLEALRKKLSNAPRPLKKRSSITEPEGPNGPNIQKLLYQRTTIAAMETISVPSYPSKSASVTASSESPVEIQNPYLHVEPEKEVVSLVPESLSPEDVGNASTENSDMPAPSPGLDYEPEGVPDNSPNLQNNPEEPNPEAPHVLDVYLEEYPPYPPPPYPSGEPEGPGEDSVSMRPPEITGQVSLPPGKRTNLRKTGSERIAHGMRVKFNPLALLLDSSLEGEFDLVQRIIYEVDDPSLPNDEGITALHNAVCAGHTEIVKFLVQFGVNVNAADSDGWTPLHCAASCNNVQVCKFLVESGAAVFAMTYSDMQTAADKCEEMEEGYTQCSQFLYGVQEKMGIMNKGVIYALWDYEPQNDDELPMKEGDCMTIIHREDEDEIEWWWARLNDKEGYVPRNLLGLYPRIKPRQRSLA

RFP-ASPP2 [7] = target: T2, RFP-ASPP2; experiment: pull-down; remark: listed apart in the source

Sequence of RFP-Angiomotin, Q4VCS5 (Q4VCS5 whole entry): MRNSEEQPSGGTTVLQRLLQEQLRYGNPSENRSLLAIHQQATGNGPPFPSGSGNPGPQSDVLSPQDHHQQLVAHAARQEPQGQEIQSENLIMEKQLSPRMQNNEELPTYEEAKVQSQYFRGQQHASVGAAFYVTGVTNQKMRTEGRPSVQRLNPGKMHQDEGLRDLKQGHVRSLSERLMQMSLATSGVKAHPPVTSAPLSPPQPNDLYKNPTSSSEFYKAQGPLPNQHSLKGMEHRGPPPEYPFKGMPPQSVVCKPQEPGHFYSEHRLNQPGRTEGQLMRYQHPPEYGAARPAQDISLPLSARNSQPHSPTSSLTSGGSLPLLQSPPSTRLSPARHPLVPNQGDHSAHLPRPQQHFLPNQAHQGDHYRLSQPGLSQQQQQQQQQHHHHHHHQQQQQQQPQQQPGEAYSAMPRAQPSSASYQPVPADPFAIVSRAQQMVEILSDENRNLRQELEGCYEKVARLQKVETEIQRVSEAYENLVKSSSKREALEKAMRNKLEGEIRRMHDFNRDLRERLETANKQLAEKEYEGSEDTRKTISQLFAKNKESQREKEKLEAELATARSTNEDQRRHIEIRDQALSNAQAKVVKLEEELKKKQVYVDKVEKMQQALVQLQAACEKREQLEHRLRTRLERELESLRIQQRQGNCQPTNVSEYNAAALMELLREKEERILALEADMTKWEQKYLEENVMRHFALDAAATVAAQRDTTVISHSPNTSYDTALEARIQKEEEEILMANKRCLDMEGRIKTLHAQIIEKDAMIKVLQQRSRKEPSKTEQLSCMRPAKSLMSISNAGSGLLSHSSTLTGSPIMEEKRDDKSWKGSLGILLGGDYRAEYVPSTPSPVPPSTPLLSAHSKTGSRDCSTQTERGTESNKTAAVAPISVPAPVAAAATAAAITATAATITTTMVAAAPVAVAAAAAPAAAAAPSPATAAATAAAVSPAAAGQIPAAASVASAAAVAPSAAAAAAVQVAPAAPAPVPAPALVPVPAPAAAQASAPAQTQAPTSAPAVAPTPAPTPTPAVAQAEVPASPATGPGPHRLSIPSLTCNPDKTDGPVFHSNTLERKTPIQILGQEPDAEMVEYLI

**Q.** With “Merlin-NLuc (from UniProt P35240 1-595) (natural protein)” as the molecule, how does the fold over the negative control (RFP alone), co-precipitated luciferase [1] read?
**A.** 2 fold and 5 fold

B1: Merlin-NLuc (natural protein, UniProt P35240 1-595, looked up)
chain: MAGAIASRMSFSSLKRKQPKTFTVRIVTMDAEMEFNCEMKWKGKDLFDLVCRTLGLRETWFFGLQYTIKDTVAWLKMDKKVLDHDVSKEEPVTFHFLAKFYPENAEEELVQEITQHLFFLQVKKQILDEKIYCPPEASVLLASYAVQAKYGDYDPSVHKRGFLAQEELLPKRVINLYQMTPEMWEERITAWYAEHRGRARDEAEMEYLKIAQDLEMYGVNYFAIRNKKGTELLLGVDALGLHIYDPENRLTPKISFPWNEIRNISYSDKEFTIKPLDKKIDVFKFNSSKLRVNKLILQLCIGNHDLFMRRRKADSLEVQQMKAQAREEKARKQMERQRLAREKQMREEAERTRDELERRLLQMKEEATMANEALMRSEETADLLAEKAQITEEEAKLLAQKAAEAEQEMQRIKATAIRTEEEKRLMEQKVLEAEVLALKMAEESERRAKEADQLKQDLQEAREAERRAKQKLLEIATKPTYPPMNPIPAPLPPDIPSFNLIGDSLSFDFKDTDMKRLSMEIEKEKVEYMEKSKHLQEQLNELKTEIEALKLKERETALDILHNENSDRGGSSKHNTIKKLTLQSAKSRVAFFEEL
**Q.** For B1, which fold over the negative control (RFP alone), bound luciferase (RFP-Angiomotin, Q4VCS5 [2]) is on record?
**A.** 2300 fold

**Q.** What about the “fold over the negative control (RFP alone), co-precipitated luciferase” value (RFP-Lats1 [3]) of the same molecule?
**A.** > 20 fold

**Q.** And the fold over the negative control (RFP alone), co-precipitated luciferase (RFP-Angiomotin, Q4VCS5 [4])?
**A.** 100 fold

**Q.** What about the “fold over the negative control (RFP alone), bound luciferase” value (RFP-Lats1 [5]) of the same molecule?
**A.** 268 fold

**Q.** And the “fold over the negative control (RFP alone), bound luciferase” value (RFP-ASPP2 [6])?
**A.** 125 fold

B2: Merlin S518A (natural protein, UniProt P35240 1-595, looked up)
chain: MAGAIASRMSFSSLKRKQPKTFTVRIVTMDAEMEFNCEMKWKGKDLFDLVCRTLGLRETWFFGLQYTIKDTVAWLKMDKKVLDHDVSKEEPVTFHFLAKFYPENAEEELVQEITQHLFFLQVKKQILDEKIYCPPEASVLLASYAVQAKYGDYDPSVHKRGFLAQEELLPKRVINLYQMTPEMWEERITAWYAEHRGRARDEAEMEYLKIAQDLEMYGVNYFAIRNKKGTELLLGVDALGLHIYDPENRLTPKISFPWNEIRNISYSDKEFTIKPLDKKIDVFKFNSSKLRVNKLILQLCIGNHDLFMRRRKADSLEVQQMKAQAREEKARKQMERQRLAREKQMREEAERTRDELERRLLQMKEEATMANEALMRSEETADLLAEKAQITEEEAKLLAQKAAEAEQEMQRIKATAIRTEEEKRLMEQKVLEAEVLALKMAEESERRAKEADQLKQDLQEAREAERRAKQKLLEIATKPTYPPMNPIPAPLPPDIPSFNLIGDSLSFDFKDTDMKRLAMEIEKEKVEYMEKSKHLQEQLNELKTEIEALKLKERETALDILHNENSDRGGSSKHNTIKKLTLQSAKSRVAFFEEL
**Q.** With B2 as the molecule, how does the “fold greater than binding to wild-type Merlin” value (RFP-ASPP2 [7]) read?
**A.** ~2 fold

B3: Merlin S518D (natural protein, UniProt P35240 1-595, looked up)
chain: MAGAIASRMSFSSLKRKQPKTFTVRIVTMDAEMEFNCEMKWKGKDLFDLVCRTLGLRETWFFGLQYTIKDTVAWLKMDKKVLDHDVSKEEPVTFHFLAKFYPENAEEELVQEITQHLFFLQVKKQILDEKIYCPPEASVLLASYAVQAKYGDYDPSVHKRGFLAQEELLPKRVINLYQMTPEMWEERITAWYAEHRGRARDEAEMEYLKIAQDLEMYGVNYFAIRNKKGTELLLGVDALGLHIYDPENRLTPKISFPWNEIRNISYSDKEFTIKPLDKKIDVFKFNSSKLRVNKLILQLCIGNHDLFMRRRKADSLEVQQMKAQAREEKARKQMERQRLAREKQMREEAERTRDELERRLLQMKEEATMANEALMRSEETADLLAEKAQITEEEAKLLAQKAAEAEQEMQRIKATAIRTEEEKRLMEQKVLEAEVLALKMAEESERRAKEADQLKQDLQEAREAERRAKQKLLEIATKPTYPPMNPIPAPLPPDIPSFNLIGDSLSFDFKDTDMKRLDMEIEKEKVEYMEKSKHLQEQLNELKTEIEALKLKERETALDILHNENSDRGGSSKHNTIKKLTLQSAKSRVAFFEEL
**Q.** B3 was tested. Which “fold less than binding to wild-type Merlin” value (RFP-ASPP2 [7]) did it give?
**A.** > 2 fold
